The target of series [1] is T1, 336(P1′-P3′)562 factor VIIIa mutant.
T1 chain 1: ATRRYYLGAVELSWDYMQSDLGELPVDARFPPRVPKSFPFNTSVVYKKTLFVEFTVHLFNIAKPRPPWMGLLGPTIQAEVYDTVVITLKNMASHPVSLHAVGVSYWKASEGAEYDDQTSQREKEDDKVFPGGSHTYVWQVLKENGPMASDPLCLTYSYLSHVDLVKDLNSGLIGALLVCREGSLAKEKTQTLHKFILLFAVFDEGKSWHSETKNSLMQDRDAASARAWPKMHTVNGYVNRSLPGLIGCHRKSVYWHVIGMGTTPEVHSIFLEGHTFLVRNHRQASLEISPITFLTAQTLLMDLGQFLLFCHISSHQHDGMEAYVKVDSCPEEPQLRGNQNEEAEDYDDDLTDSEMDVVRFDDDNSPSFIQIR
T1 chain 2: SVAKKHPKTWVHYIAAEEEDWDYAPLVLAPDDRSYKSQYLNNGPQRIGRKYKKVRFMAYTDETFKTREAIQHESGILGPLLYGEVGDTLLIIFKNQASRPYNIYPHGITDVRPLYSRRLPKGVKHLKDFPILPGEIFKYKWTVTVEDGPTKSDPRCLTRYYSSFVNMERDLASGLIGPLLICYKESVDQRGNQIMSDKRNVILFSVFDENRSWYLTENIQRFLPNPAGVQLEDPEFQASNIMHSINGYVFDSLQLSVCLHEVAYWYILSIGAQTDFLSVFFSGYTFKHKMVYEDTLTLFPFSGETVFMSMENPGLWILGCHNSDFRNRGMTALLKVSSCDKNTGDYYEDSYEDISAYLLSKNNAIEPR
T1 chain 3: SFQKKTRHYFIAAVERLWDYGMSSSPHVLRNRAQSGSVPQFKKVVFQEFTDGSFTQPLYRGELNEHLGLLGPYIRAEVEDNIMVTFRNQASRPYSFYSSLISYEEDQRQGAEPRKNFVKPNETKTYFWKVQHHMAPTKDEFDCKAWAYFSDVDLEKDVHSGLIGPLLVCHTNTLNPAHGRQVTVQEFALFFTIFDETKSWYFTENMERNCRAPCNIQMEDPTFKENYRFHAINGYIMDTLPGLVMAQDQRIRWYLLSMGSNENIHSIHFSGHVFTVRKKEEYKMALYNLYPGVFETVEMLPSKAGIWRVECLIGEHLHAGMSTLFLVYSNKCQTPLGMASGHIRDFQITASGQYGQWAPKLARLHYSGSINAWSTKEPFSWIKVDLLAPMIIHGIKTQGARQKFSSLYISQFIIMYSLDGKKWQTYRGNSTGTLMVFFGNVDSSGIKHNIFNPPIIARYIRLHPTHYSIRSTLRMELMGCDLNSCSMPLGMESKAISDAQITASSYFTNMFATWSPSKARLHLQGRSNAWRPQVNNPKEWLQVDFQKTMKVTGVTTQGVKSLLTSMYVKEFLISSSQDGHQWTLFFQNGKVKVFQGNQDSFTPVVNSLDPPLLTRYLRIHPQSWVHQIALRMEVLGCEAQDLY

In series [2] the target is T2, 562(P4-P2)336 factor VIII mutant (procofactor).
T2 chain 1: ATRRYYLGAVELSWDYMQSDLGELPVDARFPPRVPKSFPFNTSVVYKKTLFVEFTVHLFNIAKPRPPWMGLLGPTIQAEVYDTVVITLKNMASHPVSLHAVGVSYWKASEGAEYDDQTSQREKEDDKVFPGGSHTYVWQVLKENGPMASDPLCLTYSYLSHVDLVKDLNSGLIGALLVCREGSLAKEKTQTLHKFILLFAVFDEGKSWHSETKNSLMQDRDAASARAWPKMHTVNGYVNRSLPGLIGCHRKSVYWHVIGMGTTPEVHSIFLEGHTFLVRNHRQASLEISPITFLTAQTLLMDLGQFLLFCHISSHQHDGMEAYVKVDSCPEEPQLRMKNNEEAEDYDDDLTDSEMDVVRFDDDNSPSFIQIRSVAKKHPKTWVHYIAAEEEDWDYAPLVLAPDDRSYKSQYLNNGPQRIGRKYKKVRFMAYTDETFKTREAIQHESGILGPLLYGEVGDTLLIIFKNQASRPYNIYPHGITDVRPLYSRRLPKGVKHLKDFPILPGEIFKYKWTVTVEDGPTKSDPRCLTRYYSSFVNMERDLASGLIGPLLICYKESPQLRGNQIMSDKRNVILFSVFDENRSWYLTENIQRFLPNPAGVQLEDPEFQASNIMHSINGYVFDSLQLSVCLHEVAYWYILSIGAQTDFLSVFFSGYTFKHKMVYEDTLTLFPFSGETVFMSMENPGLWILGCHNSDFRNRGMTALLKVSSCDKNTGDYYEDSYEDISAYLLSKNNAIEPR
T2 chain 2: T1 chain 3

Series [3] addresses T3, 562(P4-P3′)336 factor VIII mutant (procofactor).
T3 chain 1: T2 chain 1 with G563M, N564K, Q565N
T3 chain 2: T1 chain 3

Changes are numbered by the printed parent chain.

B1: human activated protein C (protein)
chain 1: ANSFLEELRHSSLERECIEEICDFEEAKEIFQNVDDTLAFWSKHVDGDQCLVLPLEHPCASLCCGHGTCIDGIGSFSCDCRSGWEGRFCQREVSFLNCSLDNGGCTHYCLEEVGWRRCSCAPGYKLGDDLLQCHPAVKFPCGRPWKRMEKKRSHL
chain 2: LIDGKMTRRGDSPWQVVLLDSKKKLACGAVLIHPSWVLTAAHCMDESKKLLVRLGEYDLRRWEKWELDLDIKEVFVHPNYSKSTTDNDIALLHLAQPATLSQTIVPICLPDSGLAERELNQAGQETLVTGWGYHSSREKEAKRNRTFVLNFIKIPVVPHNECSEVMSNMVSENMLCAGILGDRQDACEGDSGGPMVASFHGTWFLVGLVSWGEGCGLLHNYGVYTKVSRYLDWIHGHIRDKEAPQKSWAP
B1: in series [1], the A1 Cleavage (nM A1/min/nM APC) (nM A1/min/nM APC) turned out to be 1.1; the A2 Cleavage (nM A2/min/nM APC) (nM A2/min/nM APC) was found to be 0.3; the “fold reduction of cleavage rate at the A1 site compared with WT” value is “reduced ˜16 and ˜9-fold, respectively, as compared with the WT protein”. For the same protein, the A2 Cleavage (nM A2/min/nM APC) (nM A2/min/nM APC) in series [2] amounted to 0.6. The A2 Cleavage (nM A2/min/nM APC) (nM A2/min/nM APC) in series [3] was determined as 2.7.
